Data set [1] has as its system VchCAST RNA-guided transposition machinery (E. coli BL21(DE3) host, lacZ target). As to the kind of experiment: relative integration efficiency (T-RL orientation) vs wild-type transposon end (log2 (normalized fold change)); transposon end mutated: right end (5 bp flank + 75 bp right end); higher = more efficient transposition. In short, it runs like this:
(§1)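 A T7-driven effector plasmid encoding a CRISPR array, tniQ-cas8-cas7-cas6 and tnsA-tnsB-tnsC was co-transformed into E. coli BL21(DE3) together with a pUC57 mini-transposon donor holding barcoded pools of 1549 left-end or 1849 right-end variants. Transformants were plated with 0.1 mM IPTG at 37°C for 18 h. Illumina sequencing of PCR-amplified input plasmids and genomic integration junctions gave barcode abundances, and relative integration efficiency is their output/input fold change, normalised to reference barcodes and log-transformed.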

Data set [2] has the same test system. As to the kind of experiment: relative integration efficiency (T-LR orientation) vs wild-type transposon end (log2 (normalized fold change)); transposon end mutated: right end (5 bp flank + 75 bp right end); higher = more efficient transposition. In short, it runs like this:
as §1

± gives the standard deviation of the averaged measurements.

For the sequence “ACATTTGTGGATCCAACCATAAAATGATAATTACACCCATAAATTCATAATTATCACACCCAATTTAACTATAACGCTCTGATCATAGTCAGACCAACATTGCTACGACCCGTATTCGCACCGACAC”, the “relative integration efficiency (log2)” value is -2.04 ± 0.41 in data set [1] and 1.043 ± 0.0096 in data set [2].

Regarding “ACATTTGTGGATCCAACCATAAAATGATAATTACACCCATAAATTCATCATTATCACACCCAATTTAACTATAACGCTCTGATCATAGTCAGACCAACATTGCTACGACCCGTATTCGCACCGACAC”, the “relative integration efficiency (log2)” value in data set [1] is -2.28 ± 0.22; in data set [2], 1.15 ± 0.38.

Regarding “ACATTTGTGGATCCAACCATAAAATGATAATTACACCCATAAATTGATAATTATCACACCCAATTTAACTATAACGCTCTGATCATAGTCAGACCAACATTGCTACGACCCGTATTCGCACCGACAC”, the results for the “relative integration efficiency (log2)” value in data set [1] and in data set [2] were -0.789 ± 0.2 and 2.06 ± 0.17, respectively.

Consider “ACATTTGTGGATCCAACCATAAAATGATAATTACACCCATAAATTGATCATTATCACACCCAATTTAACTATAACGCTCTGATCATAGTCAGACCAACATTGCTACGACCCGTATTCGCACCGACAC”, for which the “relative integration efficiency (log2)” value is -1.6 ± 0.2 in data set [1] and 1.72 ± 0.11 in data set [2].

For the sequence “ACATTTGTGTATACAACCATAAAATGATAATTACACCCATAAATTGATAATTATCACACCCATAAATTGATATTGCCTCTGATCATAGTCAGACCAACATTGCTACGACCCGTATTCGCACCGACAC”, the “relative integration efficiency (log2)” value was 0.00813 ± 0.2 in data set [1] and -0.811 ± 0.61 in data set [2].

For the sequence “ACATTTGTGTCGACAACCATAAAATGATAATTACACCCATAAATTGATAATTATCACACCCATAAATTGATATTGCCTCTGATCATAGTCAGACCAACATTGCTACGACCCGTATTCGCACCGACAC”, the “relative integration efficiency (log2)” value was -0.916 ± 0.027 in data set [1] and -2.89 ± 0.57 in data set [2].

“ACATTTGTTAAAAAAACCATACGTTGATTTTACGAAACCATACGCTGAAATAATCACACCCATAAATTGATATTGCCTCTGATCATAGTCAGACCAACATTGCTACGACCCGTATTCGCACCGACAC”: the “relative integration efficiency (log2)” value in data set [1] was -5.94 ± 0.086; in data set [2] it was -5.9 ± 0.37.

For the sequence “ACATTTGTTCATACAACCATAAAACGATAATTACACCCATAAATGGATAATTATCACACCCAATTTAACTATAACGCTCTGATCATAGTCAGACCAACATTGCTACGACCCGTATTCGCACCGACAC”, the “relative integration efficiency (log2)” value in data set [1] was -2.14 ± 0.3; in data set [2], -0.438 ± 0.41.

Take “ACATTTGTTCATACAACCATAAAACGATAATTACACCCATAAATGGATCATTATCACACCCAATTTAACTATAACGCTCTGATCATAGTCAGACCAACATTGCTACGACCCGTATTCGCACCGACAC”: the “relative integration efficiency (log2)” value in data set [1] was -2.16 ± 0.3; in data set [2], -0.511 ± 0.011.

As to “ACATTTGTTCATACAACCATAAAACGATAATTACACCCATAAATTCATAATTATCACACCCAATTTAACTATAACGCTCTGATCATAGTCAGACCAACATTGCTACGACCCGTATTCGCACCGACAC”, the “relative integration efficiency (log2)” value is -3 ± 0.52 in data set [1] and -0.844 ± 0.015 in data set [2].

Take “ACATTTGTTCATACAACCATAAAACGATAATTACACCCATAAATTCATCATTATCACACCCAATTTAACTATAACGCTCTGATCATAGTCAGACCAACATTGCTACGACCCGTATTCGCACCGACAC”: the entries for the “relative integration efficiency (log2)” value in data set [1] and in data set [2] were -2.49 ± 0.11 and -0.684 ± 0.17, respectively.

For “ACATTTGTTCATACAACCATAAAACGATAATTACACCCATAAATTGATAATTATCACACCCAATTTAACTATAACGCTCTGATCATAGTCAGACCAACATTGCTACGACCCGTATTCGCACCGACAC”, the “relative integration efficiency (log2)” value is -0.611 ± 0.28 in data set [1] and 1.42 ± 0.13 in data set [2].

As to “ACATTTGTTCATACAACCATAAAACGATAATTACACCCATAAATTGATCATTATCACACCCAATTTAACTATAACGCTCTGATCATAGTCAGACCAACATTGCTACGACCCGTATTCGCACCGACAC”, the “relative integration efficiency (log2)” value in data set [1] was -2.19 ± 0.3; in data set [2] it was -0.162 ± 0.59.

“ACATTTGTTCATACAACCATAAAATGATAATTACACCCATAAATGGATAATTATCACACCCAATTTAACTATAACGCTCTGATCATAGTCAGACCAACATTGCTACGACCCGTATTCGCACCGACAC”: the “relative integration efficiency (log2)” value in data set [1] was -1.57 ± 0.27; in data set [2], -0.42 ± 0.41.

As for “ACATTTGTTCATACAACCATAAAATGATAATTACACCCATAAATGGATAATTATCACCCCCAATTTAACTATAACGCTCTGATCATAGTCAGACCAACATTGCTACGACCCGTATTCGCACCGACAC”, the “relative integration efficiency (log2)” value in data set [1] is -1 ± 0.35; in data set [2], 0.23 ± 0.071.

Take “ACATTTGTTCATACAACCATAAAATGATAATTACACCCATAAATGGATCATTATCACACCCAATTTAACTATAACGCTCTGATCATAGTCAGACCAACATTGCTACGACCCGTATTCGCACCGACAC”: the “relative integration efficiency (log2)” value in data set [1] is -1.79 ± 0.18; in data set [2] it was -0.503 ± 0.054.

“ACATTTGTTCATACAACCATAAAATGATAATTACACCCATAAATGGATCATTATCACCCCCAATTTAACTATAACGCTCTGATCATAGTCAGACCAACATTGCTACGACCCGTATTCGCACCGACAC”: the “relative integration efficiency (log2)” value in data set [1] was -1.84 ± 0.28; in data set [2] it was -0.469 ± 0.18.

Regarding “ACATTTGTTCATACAACCATAAAATGATAATTACACCCATAAATTCATAATTATCACACCCAATTTAACTATAACGCTCTGATCATAGTCAGACCAACATTGCTACGACCCGTATTCGCACCGACAC”, the “relative integration efficiency (log2)” value is -2.52 ± 0.32 in data set [1] and -0.697 ± 0.075 in data set [2].

Consider “ACATTTGTTCATACAACCATAAAATGATAATTACACCCATAAATTCATAATTATCACCCCCAATTTAACTATAACGCTCTGATCATAGTCAGACCAACATTGCTACGACCCGTATTCGCACCGACAC”, for which the entries for the “relative integration efficiency (log2)” value in data set [1] and in data set [2] were -1.62 ± 0.43 and -0.0689 ± 0.64, respectively.

Turning to “ACATTTGTTCATACAACCATAAAATGATAATTACACCCATAAATTCATCATTATCACACCCAATTTAACTATAACGCTCTGATCATAGTCAGACCAACATTGCTACGACCCGTATTCGCACCGACAC”, the results for the “relative integration efficiency (log2)” value in data set [1] and in data set [2] were -2.35 ± 0.22 and -0.334 ± 0.16, respectively.

Turning to “ACATTTGTTCATACAACCATAAAATGATAATTACACCCATAAATTCATCATTATCACCCCCAATTTAACTATAACGCTCTGATCATAGTCAGACCAACATTGCTACGACCCGTATTCGCACCGACAC”, the “relative integration efficiency (log2)” value in data set [1] was -1.97 ± 0.36; in data set [2], 0.174 ± 0.27.

As to “ACATTTGTTCATACAACCATAAAATGATAATTACACCCATAAATTGATAATTATCACCCCCAATTTAACTATAACGCTCTGATCATAGTCAGACCAACATTGCTACGACCCGTATTCGCACCGACAC”, the results for the “relative integration efficiency (log2)” value in data set [1] and in data set [2] were -0.912 ± 0.46 and 0.97 ± 0.12, respectively.

With “ACATTTGTTCATACAACCATAAAATGATAATTACACCCATAAATTGATCATTATCACACCCAATTTAACTATAACGCTCTGATCATAGTCAGACCAACATTGCTACGACCCGTATTCGCACCGACAC”, the “relative integration efficiency (log2)” value in data set [1] was -1.45 ± 0.36; in data set [2], 0.604 ± 0.17.

Regarding “ACATTTGTTCATACAACCATAAAATGATAATTACACCCATAAATTGATCATTATCACCCCCAATTTAACTATAACGCTCTGATCATAGTCAGACCAACATTGCTACGACCCGTATTCGCACCGACAC”, the “relative integration efficiency (log2)” value was -1.59 ± 0.39 in data set [1] and 0.514 ± 0.2 in data set [2].

In the case of “ACATTTGTTCATACAACCATAAAATGATAATTACCACCCATAAATTGATAATTATCACACCCATTTAACTATAACGCTCTGATCATAGTCAGACCAACATTGCTACGACCCGTATTCGCACCGACAC”, the “relative integration efficiency (log2)” value in data set [1] was -1.38 ± 0.23; in data set [2] it was -0.231 ± 0.23.

As for “ACATTTGTTCATACAACCATAAAATGATAATTACCACCCATACATTGATAATTATCACACCCATTTAACTATAACGCTCTGATCATAGTCAGACCAACATTGCTACGACCCGTATTCGCACCGACAC”, the “relative integration efficiency (log2)” value in data set [1] is -3.31 ± 0.39; in data set [2], -2.29 ± 0.1.

Regarding “ACATTTGTTCATACAACCATAAAATGATAATTACCACCCCTAAATTGATAATTATCACACCCATTTAACTATAACGCTCTGATCATAGTCAGACCAACATTGCTACGACCCGTATTCGCACCGACAC”, the “relative integration efficiency (log2)” value in data set [1] was -4.21 ± 0.08; in data set [2], -2.87 ± 0.85.

Turning to “ACATTTGTTCATACAACCATAAAATGATAATTACCACCCCTACATTGATAATTATCACACCCATTTAACTATAACGCTCTGATCATAGTCAGACCAACATTGCTACGACCCGTATTCGCACCGACAC”, the results for the “relative integration efficiency (log2)” value in data set [1] and in data set [2] were -4.944 ± 0.019 and -3.25 ± 0.45, respectively.

For “ACATTTGTTCATACAACCATAAAATGATAATTCACCCATAAATTGATAATTATCACACCCCAATTTAACTATAACGCTCTGATCATAGTCAGACCAACATTGCTACGACCCGTATTCGCACCGACAC”, the “relative integration efficiency (log2)” value is -2.26 ± 0.18 in data set [1] and -0.502 ± 0.27 in data set [2].

As for “ACATTTGTTCATACAACCATAAAATGATAATTCACCCATCAATTGATAATTATCACACCCCAATTTAACTATAACGCTCTGATCATAGTCAGACCAACATTGCTACGACCCGTATTCGCACCGACAC”, the “relative integration efficiency (log2)” value was -4.48 ± 0.28 in data set [1] and -2.51 ± 0.15 in data set [2].

As for “ACATTTGTTCATACAACCCTAAAATGATAATTACACCCATAAATGGATAATTATCACACCCAATTTAACTATAACGCTCTGATCATAGTCAGACCAACATTGCTACGACCCGTATTCGCACCGACAC”, the “relative integration efficiency (log2)” value in data set [1] is -3.9 ± 0.37; in data set [2] it was -2.78 ± 0.54.

In the case of “ACATTTGTTCATACAACCCTAAAATGATAATTACACCCATAAATGGATAATTATCACCCCCAATTTAACTATAACGCTCTGATCATAGTCAGACCAACATTGCTACGACCCGTATTCGCACCGACAC”, the “relative integration efficiency (log2)” value in data set [1] is -3.89 ± 0.38; in data set [2], -2.74 ± 0.46.

For the origin of these results see the supplement of paper PMC10201428.
